# Measurements published in IntAct's records for PubMed 39009827.
# B1: BCL11 transcription factor A (Homo sapiens), Q9H165 (parent)
# chain: MSRRKQGKPQHLSKREFSPEPLEAILTDDEPDHGPLGAPEGDHDLLTCGQCQMNFPLGDILIFIEHKRKQCNGSLCLEKAVDKPPSPSPIEMKKASNPVEVGIQVTPEDDDCLSTSSRGICPKQEHIADKLLHWRGLSSPRSAHGALIPTPGMSAEYAPQGICKDEPSSYTCTTCKQPFTSAWFLLQHAQNTHGLRIYLESEHGSPLTPRVGIPSGLGAECPSQPPLHGIHIADNNPFNLLRIPGSVSREASGLAEGRFPPTPPLFSPPPRHHLDPHRIERLGAEEMALATHHPSAFDRVLRLNPMAMEPPAMDFSRRLRELAGNTSSPPLSPGRPSPMQRLLQPFQPGSKPPFLATPPLPPLQSAPPPSQPPVKSKSCEFCGKTFKFQSNLVVHRRSHTGEKPYKCNLCDHACTQASKLKRHMKTHMHKSSPMTVKSDDGLSTASSPEPGTSDLVGSASSALKSVVAKFKSENDPNLIPENGDEEEEEDDEEEEEEEEEEEEELTESERVDYGFGLSLEAARHHENSSRGAVVGVGDESRALPDVMQGMVLSSMQHFSEAFHQVLGEKHKRGHLAEAEGHRDTCDEDSVAGESDRIDDGTVNGRGCSPGESASGGLSKKLLLGSPSSLSPFSKRIKLEKEFDLPPAAMPNTENVYSQWLAGYAASRQLKDPFLSFGDSRQSPFASSSEHSSENGSLRFSTPPGELDGGISGRSGTGSGGSTPHISGPGPGRPSSKEGRRSDTCEYCGKVFKNCSNLTVHRRSHTGERPYKCELCNYACAQSSKLTRHMKTHGQVGKDVYKCEICKMPFSVYSTLEKHMKKWHSDRVLNNDIKTE
# partner: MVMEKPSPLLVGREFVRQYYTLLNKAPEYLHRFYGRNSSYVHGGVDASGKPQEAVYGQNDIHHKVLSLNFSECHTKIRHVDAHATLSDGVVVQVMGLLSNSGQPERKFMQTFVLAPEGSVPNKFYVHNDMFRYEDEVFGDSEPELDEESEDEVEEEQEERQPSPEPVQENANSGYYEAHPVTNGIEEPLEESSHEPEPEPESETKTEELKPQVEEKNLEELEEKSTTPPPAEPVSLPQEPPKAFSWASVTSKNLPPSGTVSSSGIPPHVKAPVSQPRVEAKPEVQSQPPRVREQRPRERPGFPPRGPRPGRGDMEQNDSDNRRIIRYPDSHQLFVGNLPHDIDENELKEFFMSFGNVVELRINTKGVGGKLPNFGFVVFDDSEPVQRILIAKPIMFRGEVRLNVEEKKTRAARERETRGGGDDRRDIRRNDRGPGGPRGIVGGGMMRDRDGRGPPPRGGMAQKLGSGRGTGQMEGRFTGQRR
# B2: BCL11 transcription factor A (Homo sapiens), Q9H165 (parent)
# chain: B1 chain
# B3: Mitotic checkpoint serine/threonine-protein kinase BUB1 (Homo sapiens), O43683 (parent)
# chain: MDTPENVLQMLEAHMQSYKGNDPLGEWERYIQWVEENFPENKEYLITLLEHLMKEFLDKKKYHNDPRFISYCLKFAEYNSDLHQFFEFLYNHGIGTLSSPLYIAWAGHLEAQGELQHASAVLQRGIQNQAEPREFLQQQYRLFQTRLTETHLPAQARTSEPLHNVQVLNQMITSKSNPGNNMACISKNQGSELSGVISSACDKESNMERRVITISKSEYSVHSSLASKVDVEQVVMYCKEKLIRGESEFSFEELRAQKYNQRRKHEQWVNEDRHYMKRKEANAFEEQLLKQKMDELHKKLHQVVETSHEDLPASQERSEVNPARMGPSVGSQQELRAPCLPVTYQQTPVNMEKNPREAPPVVPPLANAISAALVSPATSQSIAPPVPLKAQTVTDSMFAVASKDAGCVNKSTHEFKPQSGAEIKEGCETHKVANTSSFHTTPNTSLGMVQATPSKVQPSPTVHTKEALGFIMNMFQAPTLPDISDDKDEWQSLDQNEDAFEAQFQKNVRSSGAWGVNKIISSLSSAFHVFEDGNKENYGLPQPKNKPTGARTFGERSVSRLPSKPKEEVPHAEEFLDDSTVWGIRCNKTLAPSPKSPGDFTSAAQLASTPFHKLPVESVHILEDKENVVAKQCTQATLDSCEENMVVPSRDGKFSPIQEKSPKQALSSHMYSASLLRLSQPAAGGVLTCEAELGVEACRLTDTDAAIAEDPPDAIAGLQAEWMQMSSLGTVDAPNFIVGNPWDDKLIFKLLSGLSKPVSSYPNTFEWQCKLPAIKPKTEFQLGSKLVYVHHLLGEGAFAQVYEATQGDLNDAKNKQKFVLKVQKPANPWEFYIGTQLMERLKPSMQHMFMKFYSAHLFQNGSVLVGELYSYGTLLNAINLYKNTPEKVMPQGLVISFAMRMLYMIEQVHDCEIIHGDIKPDNFILGNGFLEQDDEDDLSAGLALIDLGQSIDMKLFPKGTIFTAKCETSGFQCVEMLSNKPWNYQIDYFGVAATVYCMLFGTYMKVKNEGGECKPEGLFRRLPHLDMWNEFFHVMLNIPDCHHLPSLDLLRQKLKKVFQQHYTNKIRALRNRLIVLLLECKRSRK
# B4: Keratin, type II cytoskeletal 1 (Homo sapiens), P04264 (parent)
# chain: MSRQFSSRSGYRSGGGFSSGSAGIINYQRRTTSSSTRRSGGGGGRFSSCGGGGGSFGAGGGFGSRSLVNLGGSKSISISVARGGGRGSGFGGGYGGGGFGGGGFGGGGFGGGGIGGGGFGGFGSGGGGFGGGGFGGGGYGGGYGPVCPPGGIQEVTINQSLLQPLNVEIDPEIQKVKSREREQIKSLNNQFASFIDKVRFLEQQNQVLQTKWELLQQVDTSTRTHNLEPYFESFINNLRRRVDQLKSDQSRLDSELKNMQDMVEDYRNKYEDEINKRTNAENEFVTIKKDVDGAYMTKVDLQAKLDNLQQEIDFLTALYQAELSQMQTQISETNVILSMDNNRSLDLDSIIAEVKAQYEDIAQKSKAEAESLYQSKYEELQITAGRHGDSVRNSKIEISELNRVIQRLRSEIDNVKKQISNLQQSISDAEQRGENALKDAKNKLNDLEDALQQAKEDLARLLRDYQELMNTKLALDLEIATYRTLLEGEESRMSGECAPNVSVSVSTSHTTISGGGSRGGGGGGYGSGGSSYGSGGGSYGSGGGGGGGRGSYGSGGSSYGSGGGSYGSGGGGGGHGSYGSGSSSGGYRGGSGGGGGGSSGGRGSGGGSSGGSIGGRGSSSGGVKSSGGSSSVKFVSTTYSGVTR
# B5: "Poly(A) RNA polymerase, mitochondrial" (Homo sapiens), Q9NVV4 (parent)
# chain: MAVPGVGLLTRLNLCARRRTRVQRPIVRLLSCPGTVAKDLRRDEQPSGSVETGFEDKIPKRRFSEMQNERREQAQRTVLIHCPEKISENKFLKYLSQFGPINNHFFYESFGLYAVVEFCQKESIGSLQNGTHTPSTAMETAIPFRSRFFNLKLKNQTSERSRVRSSNQLPRSNKQLFELLCYAESIDDQLNTLLKEFQLTEENTKLRYLTCSLIEDMAAAYFPDCIVRPFGSSVNTFGKLGCDLDMFLDLDETRNLSAHKISGNFLMEFQVKNVPSERIATQKILSVLGECLDHFGPGCVGVQKILNARCPLVRFSHQASGFQCDLTTNNRIALTSSELLYIYGALDSRVRALVFSVRCWARAHSLTSSIPGAWITNFSLTMMVIFFLQRRSPPILPTLDSLKTLADAEDKCVIEGNNCTFVRDLSRIKPSQNTETLELLLKEFFEYFGNFAFDKNSINIRQGREQNKPDSSPLYIQNPFETSLNISKNVSQSQLQKFVDLARESAWILQQEDTDRPSISSNRPWGLVSLLLPSAPNRKSFTKKKSNKFAIETVKNLLESLKGNRTENFTKTSGKRTISTQT
# B6: Fanconi anemia group A protein (Homo sapiens), O15360 (parent)
# chain: MSDSWVPNSASGQDPGGRRRAWAELLAGRVKREKYNPERAQKLKESAVRLLRSHQDLNALLLEVEGPLCKKLSLSKVIDCDSSEAYANHSSSFIGSALQDQASRLGVPVGILSAGMVASSVGQICTAPAETSHPVLLTVEQRKKLSSLLEFAQYLLAHSMFSRLSFCQELWKIQSSLLLEAVWHLHVQGIVSLQELLESHPDMHAVGSWLFRNLCCLCEQMEASCQHADVARAMLSDFVQMFVLRGFQKNSDLRRTVEPEKMPQVTVDVLQRMLIFALDALAAGVQEESSTHKIVRCWFGVFSGHTLGSVISTDPLKRFFSHTLTQILTHSPVLKASDAVQMQREWSFARTHPLLTSLYRRLFVMLSAEELVGHLQEVLETQEVHWQRVLSFVSALVVCFPEAQQLLEDWVARLMAQAFESCQLDSMVTAFLVVRQAALEGPSAFLSYADWFKASFGSTRGYHGCSKKALVFLFTFLSELVPFESPRYLQVHILHPPLVPGKYRSLLTDYISLAKTRLADLKVSIENMGLYEDLSSAGDITEPHSQALQDVEKAIMVFEHTGNIPVTVMEASIFRRPYYVSHFLPALLTPRVLPKVPDSRVAFIESLKRADKIPPSLYSTYCQACSAAEEKPEDAALGVRAEPNSAEEPLGQLTAALGELRASMTDPSQRDVISAQVAVISERLRAVLGHNEDDSSVEISKIQLSINTPRLEPREHMAVDLLLTSFCQNLMAASSVAPPERQGPWAALFVRTMCGRVLPAVLTRLCQLLRHQGPSLSAPHVLGLAALAVHLGESRSALPEVDVGPPAPGAGLPVPALFDSLLTCRTRDSLFFCLKFCTAAISYSLCKFSSQSRDTLCSCLSPGLIKKFQFLMFRLFSEARQPLSEEDVASLSWRPLHLPSADWQRAALSLWTHRTFREVLKEEDVHLTYQDWLHLELEIQPEADALSDTERQDFHQWAIHEHFLPESSASGGCDGDLQAACTILVNALMDFHQSSRSYDHSENSDLVFGGRTGNEDIISRLQEMVADLELQQDLIVPLGHTPSQEHFLFEIFRRRLQALTSGWSVAASLQRQRELLMYKRILLRLPSSVLCGSSFQAEQPITARCEQFFHLVNSEMRNFCSHGGALTQDITAHFFRGLLNACLRSRDPSLMVDFILAKCQTKCPLILTSALVWWPSLEPVLLCRWRRHCQSPLPRELQKLQEGRQFASDFLSPEAASPAPNPDWLSAAALHFAIQQVREENIRKQLKKLDCEREELLVFLFFFSLMGLLSSHLTSNSTTDLPKAFHVCAAILECLEKRKISWLALFQLTESDLRLGRLLLRVAPDQHTRLLPFAFYSLLSYFHEDAAIREEAFLHVAVDMYLKLVQLFVAGDTSTVSPPAGRSLELKGQGNPVELITKARLFLLQLIPRCPKKSFSHVAELLADRGDCDPEVSAALQSRQQAAPDADLSQEPHLF
# Variants of: B1
# Settings: with G3BP2, Q9UN86
row,Variant,effect of a mutation on the interaction
1,C48F,causing an interaction

# Variants of: B2
# Settings: with clh1_human CLTC
row,Variant,effect of a mutation on the interaction
1,C48F,increasing interaction strength

# Variants of: B3
# Settings: with mlp3b_human MAP1LC3B
row,Variant,effect of a mutation on the interaction
1,S492F,increasing interaction strength

# Variants of: B3
# Settings: with gbrl1_human GABARAPL1, Q9H0R8
# Sequence of gbrl1_human GABARAPL1, Q9H0R8 (Q9H0R8 whole entry, looked up): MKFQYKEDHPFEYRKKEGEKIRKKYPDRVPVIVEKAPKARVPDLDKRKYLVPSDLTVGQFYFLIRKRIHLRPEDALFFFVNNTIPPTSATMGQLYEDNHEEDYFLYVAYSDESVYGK
row,Variant,effect of a mutation on the interaction
1,S492F,increasing interaction strength

# Variants of: B4
# Settings: with mlp3a_human MAP1LC3A
row,Variant,effect of a mutation on the interaction
1,L214P,disrupting interaction strength

# Variants of: B5
# Settings: with eps15_human EPS15, P42566
# Sequence of eps15_human EPS15, P42566 (P42566 whole entry): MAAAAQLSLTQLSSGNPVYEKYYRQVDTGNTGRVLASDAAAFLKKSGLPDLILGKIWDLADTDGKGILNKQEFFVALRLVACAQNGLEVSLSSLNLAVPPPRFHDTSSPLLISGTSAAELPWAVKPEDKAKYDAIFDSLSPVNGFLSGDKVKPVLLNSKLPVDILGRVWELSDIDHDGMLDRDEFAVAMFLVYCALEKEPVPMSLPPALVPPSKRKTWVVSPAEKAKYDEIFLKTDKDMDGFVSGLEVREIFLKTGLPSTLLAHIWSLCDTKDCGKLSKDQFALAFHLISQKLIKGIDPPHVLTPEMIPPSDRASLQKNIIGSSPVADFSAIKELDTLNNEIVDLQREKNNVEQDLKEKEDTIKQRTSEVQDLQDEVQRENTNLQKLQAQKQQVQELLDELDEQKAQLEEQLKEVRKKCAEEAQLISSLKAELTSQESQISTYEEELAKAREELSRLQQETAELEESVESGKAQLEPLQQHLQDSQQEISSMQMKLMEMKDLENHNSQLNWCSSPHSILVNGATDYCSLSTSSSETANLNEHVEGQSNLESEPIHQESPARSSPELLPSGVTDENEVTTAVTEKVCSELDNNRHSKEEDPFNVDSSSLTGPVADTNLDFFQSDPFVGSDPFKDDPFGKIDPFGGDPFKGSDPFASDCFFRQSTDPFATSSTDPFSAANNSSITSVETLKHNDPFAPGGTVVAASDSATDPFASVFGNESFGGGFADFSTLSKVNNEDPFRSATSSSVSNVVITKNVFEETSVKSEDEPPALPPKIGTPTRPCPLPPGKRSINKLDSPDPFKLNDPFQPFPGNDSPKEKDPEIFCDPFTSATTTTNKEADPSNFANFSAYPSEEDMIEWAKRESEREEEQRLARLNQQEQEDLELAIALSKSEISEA
row,Variant,effect of a mutation on the interaction
1,N478D,decreasing interaction strength

# Variants of: B6
# Settings: with cskp_human CASK
row,Variant,effect of a mutation on the interaction
1,S4L,causing an interaction
